Measurements: doi:10.1101/2021.07.23.453429

How the values were obtained:
cyclophilin D [1] = molecular target: cyclophilin D (UniProt P30405); experiment: NMR titration
cyclophilin D [2] = molecular target: cyclophilin D (UniProt P30405); experiment: SPR

Chain of cyclophilin D (P30405 43-207): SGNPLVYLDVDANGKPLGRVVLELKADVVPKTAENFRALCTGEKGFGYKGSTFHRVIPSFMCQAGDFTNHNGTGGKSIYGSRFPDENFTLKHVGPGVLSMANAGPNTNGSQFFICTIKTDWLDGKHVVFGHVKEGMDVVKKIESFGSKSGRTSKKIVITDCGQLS

| residue-based KD (CypD residue G65) (cyclophilin D [1]) [μΜ] | residue-based KD (CypD residue I114) (cyclophilin D [1]) [μΜ] | residue-based KD (CypD residue S77) (cyclophilin D [1]) [μΜ] | Kd (cyclophilin D [2]) [µM] | Substance |
| --- | --- | --- | --- | --- |
| 4.1 | 32 | 6.6 | 8.4 | p53 N-terminal domain (NTD) (domain or fragment) |
|  |  |  | 10 | p53 NTD-DBD (domain or fragment) |
